Source: PMC12687424, “Penetrant PKCβ mutation in ATLL displays a mixed gain-of-function” (Biochemical Journal, 2025)
FAM = fluorescein label

Legend:
[1] = biological target: T1, D427N PKCβII catalytic domain (UniProt P05771-2 321-673, D427N, phosphorylated at T500 and at the other two PKC priming sites in the C-terminal tail); assay: fluorescence polarisation; PKCβII catalytic domain titrated into 280 nM fluorescein-PSS peptide in a cuvette; 20°C; 50 mM Tris-HCl pH 7.5, 150 mM NaCl, 5 mM MgCl2, 0.05% Brij-35, 500 μM AMP-PCP, 5% glycerol; anisotropy fitted assuming a 1:1 interaction; conditions: both partners purified
T1 construct: D427N is a somatic mutation found in ATLL patients; source: SF21 cells (baculovirus), purified (Glutathione-Sepharose, His-TEV cleavage, Superdex 200); not shown: GST, N-terminal, cleaved

[2] = biological target: T2, WT PKCβII catalytic domain (UniProt P05771-2 321-673, primed (phosphorylated) at the three PKC priming sites (T-loop, turn motif, hydrophobic motif)); assay: as above; conditions: both partners purified
T2 construct: Protein kinase C beta, isoform PKCβII, catalytic domain released by TEV cleavage from GST-(3C)-PKCβII that carries a TEV site at position 321; Plasmids for WT PKCβI and PKCβII came from the laboratory archive; also called protein kinase C beta II catalytic domain; PKCβII kinase domain; source: SF21 cells (baculovirus), purified (Glutathione-Sepharose, His-TEV cleavage, Superdex 200); not shown: …
T2 sequence (P05771 other isoform, or with tags, fused parts or gaps): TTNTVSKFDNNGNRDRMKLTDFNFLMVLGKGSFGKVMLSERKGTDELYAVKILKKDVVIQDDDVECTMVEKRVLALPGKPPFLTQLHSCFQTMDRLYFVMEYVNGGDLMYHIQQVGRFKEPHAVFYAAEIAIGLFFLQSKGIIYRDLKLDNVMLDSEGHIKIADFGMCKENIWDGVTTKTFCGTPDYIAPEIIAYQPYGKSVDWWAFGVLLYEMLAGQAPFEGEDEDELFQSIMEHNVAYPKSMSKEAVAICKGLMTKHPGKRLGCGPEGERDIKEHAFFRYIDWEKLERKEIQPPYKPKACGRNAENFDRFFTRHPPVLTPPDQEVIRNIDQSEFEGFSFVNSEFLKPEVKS

T1 sequence (P05771 other isoform, or with tags, fused parts or gaps D427N | D427N | D427N D427N): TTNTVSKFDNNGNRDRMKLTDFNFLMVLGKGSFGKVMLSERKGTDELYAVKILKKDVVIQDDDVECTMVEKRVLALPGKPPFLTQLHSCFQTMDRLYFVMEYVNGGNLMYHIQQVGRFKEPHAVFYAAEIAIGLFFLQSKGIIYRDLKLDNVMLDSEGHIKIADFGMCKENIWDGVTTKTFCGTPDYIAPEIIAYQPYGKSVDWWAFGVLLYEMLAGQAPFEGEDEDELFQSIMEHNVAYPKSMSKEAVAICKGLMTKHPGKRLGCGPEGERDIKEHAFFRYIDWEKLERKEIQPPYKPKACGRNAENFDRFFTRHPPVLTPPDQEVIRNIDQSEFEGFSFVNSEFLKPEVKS

- Kd [1]: 72 µM
- Kd [2]: 35.3 µM
B1: Fluorescein-PSS peptide (peptide)
peptide: {FAM}-ESTVRFARKGSLRQKNVH-NH2
notes: source: synthetic peptide (HPLC purified to >95%)
